# Target: the molecule itself
# Experiment: crystal structure
protein,measurement,value
"RecE^606 (P658L) (residues 606-866 of E. coli RecE protein with the P658L mutation) (domain or fragment, UniProt P15032 606-866, looked up) ENYHAGPGISKSQLDDIADTPALYLWRKNAPVDTTKTKTLDLGTAFHCRVLELEEFSNRFIVAPEFNRRTNAGKEEEKAFLMECASTGKTVITAEEGRKIELMYQSVMALPLGQWLVESAGHAESSIYWEDPETGILCRCRPDKIIPEFHWIMDVKTTADIQRFKTAYYDYRYHVQDAFYSDGYEAQFGVQPTFVFLVASTTIECGRYPVEIFMMGEEAKLAGQQEYHRNLRTLSDCLNTDEWPAIKTLSLPRWAKEYAND",stoichiometry N,4
